Measurements as given in patent US5849703A, “Pre-formed anticoagulant heparin/TFPI complexes” (G. D. Searle & Co., priority 1996, dated 1998).
Values joined by “and” are separate entries in the source; they are usually repeats but may differ in a detail not shown here. Identical values can stand only once. “Also recorded” adds a separate entry of the source. Like-named read-outs stand apart in the source and are kept apart here.

Legend:
[1] = test system: TF-induced clotting in human plasma; assay: Dilute prothrombin time (dPT) assay: TF-induced clotting of human plasma; assay type: biochemical; settings: 1:4 dilution of Simplastin
Experimental: dPT assay was carried out using 1:4 dilution of Simplastin®. Closed square and closed triangle on the abscissa indicate the clotting times of the plasma supplemented with control buffer and 2 μg/ml FL-TFPI, respectively.
dPT assay was carried out using 1:40 dilution of Simplastin®. Closed square and closed triangle on the abscissa indicate the clotting times of the plasma supplemented with control buffer and 0.3 μg/ml FL-TFPI, respectively.
(§1) Rabbit brain thromboplastin (TF;Simplastin®) was diluted to varying degrees ranging from 1:4 to 1:50 with a buffer containing 12.5 mM CaCl2, 75 mM NaCl, 0.5 mg/ml bovine serum albumin, and 0.02% NaN3, for determination of TF-induced clotting time in human plasma. Fifty (50) μl of human plasma were mixed with 50 μl of DB, heparin, TFPI, or preformed complexes of heparin/TFPI in DB in the well of a Fibrometer at 37° for 1 min. Two hundred (200) μl of appropriately diluted thromboplastin reagent were then added and the time to clotting was determined.
(§2) The dPTs reported here are the average of 2 to 8 determinations, depending on the length of the clotting time. When the clotting time was short (<100 sec), the variations between determinations are small and 2-4 assay values were averaged for each data point. When the clotting time is long (>100 sec), the variations between determinations are larger and 5-8 assay values are averaged for each data point. […] The concentrations of heparin and TFPI are expressed as units or μg per ml of plasma, not as that in the final assay mixture.
In one-stage TF-induced plasma clotting assay, clotting time is dependent on the concentration of TF and the concentrations of anticoagulants present. […] In the absence of added anticoagulants, the addition of this concentration of TF caused the plasma to clot in 20 sec (closed square).

[2] = test system: TF-induced clotting of TFPI-depleted plasma; assay: dPT assay in TFPI-depleted plasma (1:50 dilution of Simplastin); assay type: biochemical, human; settings: for prolongation of clotting time: increasing concentrations, alone, 1:50 dilution of Simplastin
Experimental: FIG. 2B: Effects of CT-TFPI (.quadrature.), heparin (.circle-solid.), and sequential addition of CT-TFPI and heparin (.tangle-solidup.) on clotting time. dPTs were determined as described in METHODS using 1:50 dilution of Simplastin®.
Pooled plasma was prepared by mixing four (4) units of individual plasmas, and TFPI-depleted pooled plasma was obtained by passing the pooled plasma through a rabbit anti-human TFPI-Ig Sepharose® 4B column as described previously [(Wun, J. Biol. Chem. 265:16096-16101 (1990)].
as §1, §2
In the present work, FL-TFPI and CT-TFPI were separated by Mono S chromatography as described before [Wun, et al., Thromb. Haemost. 68, 54-59 (1992)], and the effects of heparin, FL-TFPI, or CT-TFPI alone, and combinations of heparin/FL-TFPI, and heparin/CT-TFPI were compared. FIGS. 2A and B show the results.

[3] = test system: extrinsic and the common pathways; assay: Prothrombin time (PT) assay; assay type: biochemical, human
Experimental: (§3) Measurement of PT and APTT are as described in METHODS. PT and APTT ratios are calculated by dividing the clotting times in the presence of the indicated amounts of FL-TFPI or heparin by the clotting times in the absence of anticoagulants.
Ninety (90) μl of plasma were mixed with 10 μl of DB (dilution buffer containing 10 mM Tris/HCl, pH 7.4, 150 mM NaCl, 1 mM Na2 SO4, 1 mg/ml bovine serum albumin, and 0.02% NaN3), FL-TFPI solution, or heparin solution in the Fibrometer well at 37° for 1 min. Two hundred (200) μl of Simplastin® were then added and the time to clotting was recorded.
(§4) PT is a global test that primarily measures the functionality of the extrinsic and the common pathways; while APTT is a procedure which evaluates that of the intrinsic and the common pathways. The individual effects of heparin and FL-TFPI on PT and APTT were examined to determine the primary sites of their actions.

[4] = Pharmacokinetics following bolus injection in rabbits; assay type: in vivo, rabbit; settings: for tα: bolus FL-TFPI 1.5 mg/kg or heparin 1.9 mg/kg/FL-TFPI 1.5 mg/kg; for % AUCα / % AUCβ / Clearence / Vd / tβ: bolus
Experimental: The pharmacokinetics study was carried out as described in METHODS. Rabbits were injected with a bolus of FL-TFPI (1.5 mg/kg) or heparin (1.9 mg/kg)/FL-TFPI (1.5 mg/kg) complex.
(§5) Plasma levels of TFPI antigen were measured by PCFIA assay. Functional TFPI activity in the plasma was also measured by dPT assay using each rabbit's own control plasma supplemented with known concentrations of FL-TFPI as a reference standard [Palmier, et al., Thromb. Haemost. 68, 33-36 (1992)]. Data from individual animals were fitted to the general bi-exponential equation: […]
where C is the concentration of TFPI at time t, and A and B are the intercept values (to) extrapolated from a and b, the first order elimination rate constants.

[5] = Plasma levels of TFPI following bolus injection and constant infusion; assay type: in vivo, rabbit; settings: infusion of 11.4 μg/kg/min FL-TFPI, 4 h; PCFIA
Experimental: For FL-TFPI, a bolus of 0.5 mg/kg was injected through the femoral vein followed by constant infusion of FL-TFPI (11.4 μg/kg/min).
For heparin/FL-TFPI, a bolus of preformed heparin (0.24 mg/kg)/FL-TFPI (0.19 mg/kg) complex was injected followed by constant infusion of heparin (5.4 μg/kg/min)/FL-TFPI (4.3 μg/kg/min) complex. Infusions were carried out over a 4-h period. Plasma levels of TFPI were measured by PCFIA assay.
For constant infusion studies, a bolus of FL-TFPI (0.5 mg/kg) or pre-formed heparin (0.24 mg/kg)/FL-TFPI (0.19 mg/kg) complex was injected through the femoral vein, followed by constant infusion of FL-TFPI (11.4 μg/kg/min)or heparin (5.4 μg/kg/min)/FL-TFPI (4.3 μg/kg/min) complex over a 4-hr period. Blood collection and plasma sample preparation were carried out as described above.
as §5

[6] = pH 7.4
Description: (§6) The solubility of non-glycosylated recombinant E. coli-derived FL-TFPI [Diaz-Collier, et al., Thromb.

[7] = cited from earlier work
[8] = test system: intrinsic and the common pathways; assay: Activated partial thromboplastin time (APTT) assay; assay type: biochemical, human
Experimental: as §3
Ninety (90) μl of plasma were mixed with 10 μl of DB, FL-TFPI solution, or heparin solution in the Fibrometer well at 37° for 1 min. One hundred (100) μl of Dade's activated cephaloplastin reagent were added and the mixture was incubated for exactly 2 min. A calcium solution (100 μl of 25 mM CaCl2) was added and the time to clotting was recorded.
as §4

[9] = test system: fibrin-dependent glomerulonephritis model; settings: clinical dose of heparin; cited from earlier work
factor Xa = settings: purified system; cited from earlier work
[10] = Solubility of FL-TFPI and heparin/FL-TFPI complexes
Description: as §6

[11] = bolus injection, rabbits, PCFIA
[12] = individual rabbits #1-#3, PCFIA
[13] = up to 40 μg/ml N-acetyl heparin (FIG. 5)

FL-TFPI: Recombinant full-length (FL-) TFPI, tissue factor pathway inhibitor
prolongation of the clotting time ([1]; 2 μg/ml FL-TFPI alone): 58 s | clotting time ([1]; 2 μg/ml FL-TFPI alone (FIG. 3)): 78 s | clotting time ([1]; 2 μg/ml FL-TFPI alone (FIG. 5)): 90 s | clotting time ([1]; 2 μg/ml FL-TFPI alone (FIG. 6)): 82 s | potency in prolonging the clotting time compared with CT-TFPI ([2]; FIG. 2): much more potent in prolonging the clotting time than CT-TFPI; also recorded: far more potent than CT-TFPI in prolonging the TF-induced clotting time; also recorded: far more potent than CT-TFPI alone or in combination with heparin | prolongation of clotting time [2]: increasingly prolong the clotting time in a moderate manner | PT ratio increase compared with APTT ratio ([3]; FIG. 1): much greater increase of the PT ratio than the APTT ratio | primary site of action ([3]; from PT and APTT ratios): primarily affects the extrinsic pathway | clearance of TFPI antigen (PCFIA) vs functional TFPI activity (dPT) ([4]; bolus injection, rabbits): closely matched | faster overall clearance relative to heparin/FL-TFPI complex ([4]; bolus injection, rabbits): ~ 2.6 fold | overall clearance ([4]; bolus injection, rabbits): 5.7 mL/min/kg | t1/2α [4, 11]: 1.4 min | t1/2β [4, 11]: 92 min | tα [4, 12]: 1.5 min and 1.7 min and 1.0 min | % AUCα [4, 12]: 9.4% and 7.2% and 7.9% | % AUCβ [4, 12]: 90.6% and 92.8% and 92.1% | Clearence [4, 12]: 5.9 mL/min/kg and 4.3 mL/min/kg and 6.8 mL/min/kg | Vd [4, 12]: 0.118 L/kg and 0.115 L/kg | tβ [4, 12]: 89 min and 96 min and 91 min | tα ([4]; mean of 3 rabbits (±SEM on separate line), PCFIA): 1.4 min | % AUCα ([4]; mean of 3 rabbits, PCFIA): 8.2% | % AUCβ ([4]; mean of 3 rabbits, PCFIA): 92% | Clearence ([4]; mean of 3 rabbits, PCFIA): 5.7 mL/min/kg | Vd ([4]; mean of 3 rabbits, PCFIA): 0.117 L/kg | tβ ([4]; mean of 3 rabbits, PCFIA): 92 min | % AUCβ ([4]; mean of 3 rabbits, PCFIA, listed as TFPI): 91.8% | steady state plasma level of TFPI [5]: ~ 2 μg/ml | solubility [6]: exceeds 5 mg/ml | NaCl required for dissociation from heparin [7]: 0.6 to 1 M

N-acetyl heparin
clotting time [1, 13]: ~ 18 sec | clotting time (in words) [1, 13]: did not alter the clotting time

heparin
prolongation of the clotting time ([1]; 10 μg/ml heparin alone): 26 s | clotting time ([1]; heparin beyond 1.25 μg/ml (FIG. 3)): progressively prolonged | clotting time ([1]; heparin up to 1.25 μg/ml (FIG. 3)): did not alter the clotting time | prolongation of clotting time [2]: increasingly prolong the clotting time in a moderate manner | APTT ratio increase compared with PT ratio ([8]; FIG. 1): much greater increase of APTT ratio than PT ratio | primary site of action ([8]; from PT and APTT ratios): mainly inhibits the intrinsic pathway | beneficial effect on the disease process [9]: did not produce a beneficial effect on the disease process | rate of factor Xa inhibition by TFPI (factor Xa): enhances the rate of factor Xa inhibition by TFPI in a concentration dependent and biphasic manner

non-glycosylated recombinant E. coli-derived FL-TFPI: non-glycosylated recombinant E. coli-derived FL-TFPI
solubility ([10]; Dulbecco's phosphate-buffered saline, estimated): approximately 200 μg/ml | solubility ([10]; saline solutions, compared with glycosylated FL-TFPI): even lower
